Here are results for 13 sequences from a protein production outcome set (Wang et al. 2014).

This data set can be described thus: label from the status in PepcDB records.
Regarding “MTQMRMPTSPTRPATAWPLYALPSPGEAIRQFTPNWFAVTMGTGILSLVLGQLPWPVPGAALLGAGLWRCNVGLFVVFSALYLARWALYPHEARRILAHPTASMFLGTIPMGLATLINGLLLYGLPRWGAAVIPVATALWWMDAAMALACGVLVPYLMFTRQQHRMEQMTALWLLPVVAAEVAAASAGALAPHLADAGSRFGMLVAGYVLWAYSVPVALGILVILWLRMALHQLPQASMAASSWLALGPIGTGALGMLVFAGDAPALFAAHGMGTIGQAAAGCGLIAGLLLWGLGLWWLALAILITARYFADKVPFNLGWWGFTFPLGVYALATLKLGAALQMQVFDVVGSVLVLLLCVTWTIVAARTAAGAYRGTLFVAPCLVESSEHAPAR”, the protein production entry is “failed”. Next, “MTQQNHLRGVLLASSACILWGISGVAASTLFINNPHLTAMWLTQVRMISAGLILLVWGMVAGKHPFKIWHHRHAAWTAVSYGLLGLIPVQLCYFEAVRVGNAPIATIIQFLGPFIISIYYFLFKHVTPSRIELIGMIMAFIGTLLIVTHGHLNSLAISPVILFWGGLSAIGVATNTLIPRTILPKYGALTVTGWGLLIAGLFLTLLQPMWRVHLTITWPQLGLLIVIILLGTVAPFLMFARSLSDILPTTASLMDAFEPLAATVFSITFLNVQLTSFDFIGGLLIILAVMALSLNTHKMLHFLRRRRAHSSS”: “failed”; “MTQTNNPLHGITLETIITQLVEHYGWEELGARIKIRCFTEAPSIKSSLRFLRKTDWAREKVEYLYLKTNKLPLPAAKSIQAPAKEPSKKSAPKPNSKPTQTKVVTPTPAVEGQVNSHIWGKRDLEHHHHHH”: “not failed”. Consider “MTQVYKAKFGTPNRGWVIIVHGLGEHSGRYSKLVSMLVNEGYAVYTFDWPGHGKSPGKRGHTSVEEAMEIIDFIIEEINDKPFLFGHSLGGLTVIRYAETRPEKIRGVIASSPALAKSPKTPSFMVALAKILGVLLPSLTLSNGIDPNLLSRNPDAVKRYIEDPLVHDRISAKLGRSIFKNMDLAHREAHKIKVPVLLLVGTGDVITPPEGARKLYGEIKVEDKEIVEFEGAYHEIFEDPEWGEEFHKKIVEWIKKH”, for which the protein production entry was “failed”. Take “MTRMQLHRLRYLLADVFGIVASYLSYNTLRYLTEEQERIYSTLSEYLFNAKSLWVGILYLLFWLSLFALSGYYNKPIAKSRISELLTTVASVLVGSVVVFLLLVVDDIVHDTALYLRLFFMMVATVLPWVYFPRLWVTTFGIKERKKTKGYHRVLLIGSGTIAEETASWLKSVNDMATTRLHFVPPTTREGFEQSLKSFATLVAEAVQESKPHQIILAVDCPDASFISLLLYQLYPFHMPVCVPMRSMLFAGAKVNVQGMKGEPMVDMTATNMSECAKSIKWFADRLFSLLMLILLIPVYAVIAVLVKRSSRGPVFFGQERIGLHGRPFTIYKFRTMYLDAEKDGPSLSFDGDSRVTPIGRILRKYRMDELPQFWNVLRGDMSFVGPRPERAFYIRQLVERAPYYYLLHNVRPGITSWGMVRYGYASTPDEMLERLQYDFLYYENMSLRLDIEVLLYTCQTIFKGLGK”: the protein production entry is “failed”. Then “MTRQLLIVPIVKLKNLLTGRWLRYAFLSVAGNALIWGTSIQYLKVTKPTYTSEFALILSGASFGVNVNLPGIGQATSSSSSAIGSSTYDARANYEYIFTSEAVLKKAAAIAKIPEEQFSKPRIKLLDNSTIMQFEVTGKSPKEAQNKSLALYQAMVHQITVLRTGEINQRKDPTQKTLLSSQQKLERAQKHLSEYKLRSGLSFPDQIGNLSSNIEQLRRQRAEAKAQENATNQKLQQLAKNIGLSPQEAADAFLLRVDQIFQQNLKDYSEATTTLEILMTKYGPNHPQVVKERIRQEAALAALLERSQILLEKPMTTTILNRLALAVNGSGRDTLFQNLVTYQSDQKGLQSQVKTLDSEIQRLEKRLEILSQRQSKLENLKRDVQIAEAMFASTLTKLDLGQGDIFAAYPLVQMLVEPNLPDQPTAPKKSFILAGSAAGSIFSTLGLCLVWIRKPWIEKLSKWLS”, with “failed”; and “MTRRGGRLRTVLTVLTAWSALAGAALAGAAPAGGAPRSVPLAPGVEYTQFDIPADRGVTHAHLLSVDLADPRVRVGLLHPGAVAARAPVSRLADSQGALAGINGDFFNITETQHPGVEATGSTDGPAIADGHTLKAAVPNGQRFGPALPPGTTTEDVLGVGDDRRARLDRLALEGSVDTAAGELPLRGLNQYALPEGSVGAYTADWGSVSRARAVCGTDTDRAAPCSTDTYEVTVRDGQVVSFADSPGSGPIAAGTTVLVGREAGAQQLRKLSTGEEVSVEHRLVAAGSQVAYSFAIGGYPVLRQGKPLPGLDTVTSAVRTAVGIKDAGRRLLLLAIDGAAAYRSGLTIAEVASVMRGLGATEAFSLDGGGSTTLVARAPGATSVTVRNHPSGGAERPVPNGIGVFTRT”, with “failed”. As for “MTRTLTTPLPTAPRAKPARRPTTLLFAYGATLNPEHIMVRLCQPKIRAIARLPDYRLGFHGHSEVWDSGLETLVDEPGAEAWGVLYELSATELDRFDAWQGVKLDGGGSYFHYPVEVIDENGQLLDALFHRKTEMGPQQPASRDYLDFILAGARARGLPARAIAVLEACTAVQARYPVPKMNTDIKALASKLSCAC”, the protein production result was “failed”. As to “MTRTPLTLEQLNALSDDAFTEHFAGVLEHSPHYARRAAAGRPFADVEEVAAAFARAVAADEPGAQVQLIRAHPDLAGKAALAGELTAESASEQTSAGLDRLSPEEYAEFQRLNAAYHERFGLPYVVCVRENTKDTIFEGARRRLTHTQEEEQAAALHEIGRIARLRILDLVQEGRQEKRMDGRLIRIPLEHHHHHH”, the protein production result is given as “failed”. Next, “MTRVPFTQNYRWHLPLLLLVFCCSFFINNGAIFADIMESRNIITAREMVYDHNWLVPTMNGELRLEKPPLPTWIAAITEMISPDNLPLQRAMAGFAAVMLVLFFYKFATKLTDNRTYALVSSLVLCTSYNIILMGRTATWDIYCHAFMIGAIYYLYLALRQNTCKWTYFIGAGIFMGLSFLGKGPVSFYALLLPFVCAYILYYRKETQMKGKWIALAVMILIGIVLSTWWYAYIYIYHQEMASYVFHKESSSWSNHNVRSWYYYWQFFLETGVWSLLTLTTLLVPFWKKRVESSKEYLFCLSWMLLILFFLSLLPEKKTRYLLPILLPAALTMGHLFVYWIRQAKQKMPQLKDRVLYRINAYLIVVAALALPIALYLFMYREGRMGTGMFVWLVVLFLTVAVWLFRSAFKLQPFSFLMGIVALFAVAELFVMPYIGSFVSNSDPKSISATRENPELQPLPFYHSKDEVLRIELVYEAHKKIGDMDLSNKEEIIKALPFVLISQKPAELLIPDSIRKDLNLRFIDCYDNNRWAKGHKRYDSVFISNVTIVEPIKEQ”: “failed”; “MTRYLRLSGLEPFVLTPDIPFVNVGERTNVTGSARFRKLITNRDYAAALEVARDQVQNGAQILDVNMDEGLIDSKAAMVEFLNLIASEPDIARVPLMIDSSKWEVIEAGLKCVQGKPVVNSISLKEGEESFRRQAGLCLAYGAAVVVMAFDEEGQADSFARKTTICARAYRILVEEVGFPPEDIIFDPNVFAVATGIEEHDNYGVDFIEAARWIRANLPHAHVSGGVSNLSFSFRGNEPVREAMHAVFLYHAIRAGMDMGIVNAGQLAVYDQIDPDLREACEDVVLNRKPKQGGTATERLLALAER”: “failed”; “MTSAFNAYTALALAIVSEVIASAFLQQSAQFTRPWPTLAMVLFYVASFYALSVAIRVIPLSIAYAIWGGVGIILTATVSFVLFRQMLDAAAFVGIGLIVSGVVIINLFSETTVH”: “failed”. As for “MTSALNRLQPLNGNNMKLKTLLLFVALIQSVVSMAQQDWKGDYTRAKQVYQLQKYEIAMEYFLPVTSPDAANPYASYAQYYYSLSAYKAGKYNEARQMLLQLINRDPNWKQISEAHYLLAGVYFELKQYRFGMTSLTFVQGMESSVTTFRQSYYAKIAPLDTLIKLQRVYSSDKELAKALFNQLAAYPVNSKNNMLYEYLAQEFKFTKLNRTVTYVTKTEYHVAVILPFNLSESNSENYKSGYAYEMYQGILTAVDSLKEDGVTIKIHTYDADRDVMKIQAILNYPEMKGMDLIIGPLFPSLIPYVTNFGELNNIPVINPISFNSNIIENKTQTLLFQPTLESIAGQVSSFAKEKFVYRKNSSKDNDLKPKNNVLIFYSTELKDSLLAVYYRDSLQVKGFKVSKFVKVTKENIGTVGKIFSDSISLLTTSHVFVASGEPVLASNIVSALEISRQNVPVITKSDWLDINNQTYEQFERRNIYIIYPDYFAFYTDAYRSFKAAYIKKYNVYPSKYTIIGYELMSLVGDKMRTAGTGYFNLMRTSPVSKGHFTAGYDFSKKPCNNYVPIYYFSDLKLTLANPFDEK”, the protein production entry is “failed”.
